Test results as given in patent US20220315628A1.

Tests used:
[1] = biological target: W1G2 peptide (XGVECK-biotin with X = Trp); assay: SPR; KD for the Trp peptide divided by KD for the Trp peptide
[2] = biological target: F1G2 peptide (XGVECK-biotin with X = Phe); assay: SPR; KD for the Phe peptide divided by KD for the Tyr peptide
[3] = biological target: F1G2 peptide (XGVECK-biotin with X = Phe); assay: SPR; KD for the Phe peptide divided by KD for the Phe peptide
[4] = biological target: Y1G2 peptide (XGVECK-biotin with X = Tyr); assay: SPR; KD for the Tyr peptide divided by KD for the Tyr peptide
[5] = biological target: Y1G2 peptide (XGVECK-biotin with X = Tyr); assay: SPR; KD for the Tyr peptide divided by KD for the Trp peptide
[6] = biological target: F1G2 peptide (XGVECK-biotin with X = Phe); assay: SPR; KD for the Phe peptide divided by KD for the Trp peptide
[7] = biological target: W1G2 peptide (XGVECK-biotin with X = Trp); assay: SPR; KD for the Trp peptide divided by KD for the Phe peptide
[8] = biological target: W1G2 peptide (XGVECK-biotin with X = Trp); assay: SPR; KD for the Trp peptide divided by KD for the Tyr peptide
[9] = biological target: Y1G2 peptide (XGVECK-biotin with X = Tyr); assay: SPR, steady state; biotinylated peptide on streptavidin chip, protein in solution
[10] = biological target: F1G2 peptide (XGVECK-biotin with X = Phe); assay: as above
[11] = biological target: W1G2 peptide (XGVECK-biotin with X = Trp); assay: as above
[12] = biological target: Y1G2 peptide (XGVECK-biotin with X = Tyr); assay: SPR; KD for the Tyr peptide divided by KD for the Phe peptide
[13] = biological target: Y1G2 peptide (XGVECK-biotin with X = Tyr); assay: SPR dissociation curves; biotinylated peptide on streptavidin chip
[14] = biological target: F1G2 peptide (XGVECK-biotin with X = Phe); assay: as above
[15] = biological target: W1G2 peptide (XGVECK-biotin with X = Trp); assay: as above

B1: A. tumefaciens ClpS2 [Pro34 Arg35 Glu36], wild-type, expressed in and purified from E. coli (protein)
chain: MGHHHHHHENLYFQGSDSPVDLKPKPKVKPKLERPKLYKVMLLNDDYTPREFVTVVLKAVFRMSEDTGRRVMMTAHRFGSAVVVVCERDIAETKAKEATDLGKEAGFPLMFTTEPEE
For B1, the Selectivity for Trp, Trp/Trp [1] was 1, the Selectivity for Phe, Phe/Tyr [2] was 0.21 and the Selectivity for Phe, Phe/Phe [3] was 1. For the same binder, the Selectivity for Tyr, Tyr/Tyr [4] was 1, the Selectivity for Tyr, Tyr/Trp [5] was 3.43 and the Selectivity for Phe, Phe/Trp [6] was 0.71. It also gave a Selectivity for Trp, Trp/Phe [7] of 1.42, a Selectivity for Trp, Trp/Tyr [8] of 0.29 and a Kd [9] of 63 µM. The Kd [10] was 13 µM, the Kd [11] was 18.4 µM and the Selectivity for Tyr, Tyr/Phe [12] was 4.86. It also gave a koff [13] of 1.16 s⁻¹, a koff [14] of 0.93 s⁻¹ and a koff [15] of 1.32 s⁻¹.
